Laboratory results taken from the supplement of paper PMC10065799, “High-throughput profiling of sequence recognition by tyrosine kinases and SH2 domains using bacterial peptide display” (eLife, 2023).

Tests used:
AncSZ = experiment: phosphorylation enrichment, bacterial display (enrichment ratio); higher = better substrate or ligand; peptides without Tyr show the background
EPHB1 = EPHB1 (UniProt P54762); experiment: as above
EPHB2 = EPHB2 (UniProt P29323); experiment: as above
FGFR1 = FGFR1 (UniProt P11362); experiment: as above
FGFR3 = FGFR3 (UniProt P22607); experiment: as above
Fer (mouse) = experiment: as above
Fes = Fes (UniProt P07332); experiment: as above
Fyn = Fyn (UniProt P06241); experiment: as above
Hck = Hck (UniProt P08631); experiment: as above
Jak2 = Jak2 (UniProt O60674); experiment: as above
MERTK = MERTK (UniProt Q12866); experiment: as above
c-Abl (mouse) = experiment: as above
c-Src = experiment: as above
Grb2 SH2 = Grb2 SH2 (UniProt P62993); experiment: SH2 binding enrichment of the phosphorylated peptide, bacterial display (enrichment ratio); higher = better substrate or ligand; peptides without Tyr show the background
SHP2-C SH2 = experiment: as above
c-Src SH2 = experiment: as above
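Wherever SH2 binding enrichment of the phosphorylated peptide, bacterial display is given: peptide library displayed on the E. coli surface as eCPX fusions, selected cells deep-sequenced, score is each peptide's frequency after selection divided by its frequency in the input.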
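Wherever phosphorylation enrichment, bacterial display is given: 11-residue human phosphosite peptides and single-mutation variants displayed on the E. coli surface, counted by deep sequencing, each peptide's frequency after selection divided by its frequency in the unselected input library; frequency after pTyr selection over input frequency; kinase dosed for 20-30% of maximal phosphorylation in three min.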

Jak2, sequence (O60674 whole entry, looked up): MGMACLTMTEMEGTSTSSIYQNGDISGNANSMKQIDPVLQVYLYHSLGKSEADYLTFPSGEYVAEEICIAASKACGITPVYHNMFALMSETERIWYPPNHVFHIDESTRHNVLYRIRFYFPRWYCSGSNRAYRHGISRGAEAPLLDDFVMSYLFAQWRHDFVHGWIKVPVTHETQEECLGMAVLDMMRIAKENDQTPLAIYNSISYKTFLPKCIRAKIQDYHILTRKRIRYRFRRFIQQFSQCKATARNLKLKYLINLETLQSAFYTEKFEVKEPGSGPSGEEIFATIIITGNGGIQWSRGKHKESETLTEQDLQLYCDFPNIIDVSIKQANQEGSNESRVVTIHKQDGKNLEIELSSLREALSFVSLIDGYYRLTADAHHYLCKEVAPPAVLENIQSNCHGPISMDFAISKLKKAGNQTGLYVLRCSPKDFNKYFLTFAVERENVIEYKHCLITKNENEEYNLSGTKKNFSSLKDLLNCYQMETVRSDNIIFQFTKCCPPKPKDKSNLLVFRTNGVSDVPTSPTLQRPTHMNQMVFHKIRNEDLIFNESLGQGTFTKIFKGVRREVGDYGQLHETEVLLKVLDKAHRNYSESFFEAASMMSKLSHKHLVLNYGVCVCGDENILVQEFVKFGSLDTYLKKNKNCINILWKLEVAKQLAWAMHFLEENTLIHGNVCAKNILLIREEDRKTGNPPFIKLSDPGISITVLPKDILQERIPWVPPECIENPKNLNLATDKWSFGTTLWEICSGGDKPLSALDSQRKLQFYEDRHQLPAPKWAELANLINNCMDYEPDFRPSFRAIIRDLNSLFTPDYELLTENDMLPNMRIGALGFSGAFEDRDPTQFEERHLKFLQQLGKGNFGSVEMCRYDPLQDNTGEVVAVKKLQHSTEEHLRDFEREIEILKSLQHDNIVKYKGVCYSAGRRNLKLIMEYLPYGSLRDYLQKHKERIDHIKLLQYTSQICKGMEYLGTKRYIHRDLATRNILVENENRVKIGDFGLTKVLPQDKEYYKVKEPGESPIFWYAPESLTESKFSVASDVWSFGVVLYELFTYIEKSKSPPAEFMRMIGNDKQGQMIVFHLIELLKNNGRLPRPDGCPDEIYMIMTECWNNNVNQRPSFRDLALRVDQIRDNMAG
EPHB1, sequence (P54762 whole entry, looked up): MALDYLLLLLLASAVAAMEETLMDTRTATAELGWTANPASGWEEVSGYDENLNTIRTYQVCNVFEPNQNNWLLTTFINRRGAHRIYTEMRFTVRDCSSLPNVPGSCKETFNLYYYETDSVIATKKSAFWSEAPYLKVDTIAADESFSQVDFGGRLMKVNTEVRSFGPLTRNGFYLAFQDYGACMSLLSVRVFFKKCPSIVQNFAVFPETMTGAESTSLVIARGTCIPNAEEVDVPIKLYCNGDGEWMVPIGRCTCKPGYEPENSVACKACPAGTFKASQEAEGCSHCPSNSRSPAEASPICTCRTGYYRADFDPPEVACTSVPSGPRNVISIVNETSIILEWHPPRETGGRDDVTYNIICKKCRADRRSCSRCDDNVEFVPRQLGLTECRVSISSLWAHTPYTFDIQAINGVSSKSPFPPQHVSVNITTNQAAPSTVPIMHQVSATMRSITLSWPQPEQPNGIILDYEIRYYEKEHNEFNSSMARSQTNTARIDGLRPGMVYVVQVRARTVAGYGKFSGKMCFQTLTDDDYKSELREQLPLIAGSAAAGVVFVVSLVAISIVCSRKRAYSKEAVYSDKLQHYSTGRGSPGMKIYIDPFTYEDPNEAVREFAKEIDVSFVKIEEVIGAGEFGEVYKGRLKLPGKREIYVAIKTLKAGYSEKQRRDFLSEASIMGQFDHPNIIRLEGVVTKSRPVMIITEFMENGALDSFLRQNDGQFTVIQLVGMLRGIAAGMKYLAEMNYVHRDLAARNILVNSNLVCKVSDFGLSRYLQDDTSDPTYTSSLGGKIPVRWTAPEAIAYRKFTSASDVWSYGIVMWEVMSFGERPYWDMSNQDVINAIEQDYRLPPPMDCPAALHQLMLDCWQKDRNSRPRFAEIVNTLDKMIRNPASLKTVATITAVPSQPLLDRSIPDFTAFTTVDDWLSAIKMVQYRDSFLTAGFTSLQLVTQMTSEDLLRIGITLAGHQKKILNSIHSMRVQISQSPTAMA
Fyn, sequence (P06241 whole entry, looked up): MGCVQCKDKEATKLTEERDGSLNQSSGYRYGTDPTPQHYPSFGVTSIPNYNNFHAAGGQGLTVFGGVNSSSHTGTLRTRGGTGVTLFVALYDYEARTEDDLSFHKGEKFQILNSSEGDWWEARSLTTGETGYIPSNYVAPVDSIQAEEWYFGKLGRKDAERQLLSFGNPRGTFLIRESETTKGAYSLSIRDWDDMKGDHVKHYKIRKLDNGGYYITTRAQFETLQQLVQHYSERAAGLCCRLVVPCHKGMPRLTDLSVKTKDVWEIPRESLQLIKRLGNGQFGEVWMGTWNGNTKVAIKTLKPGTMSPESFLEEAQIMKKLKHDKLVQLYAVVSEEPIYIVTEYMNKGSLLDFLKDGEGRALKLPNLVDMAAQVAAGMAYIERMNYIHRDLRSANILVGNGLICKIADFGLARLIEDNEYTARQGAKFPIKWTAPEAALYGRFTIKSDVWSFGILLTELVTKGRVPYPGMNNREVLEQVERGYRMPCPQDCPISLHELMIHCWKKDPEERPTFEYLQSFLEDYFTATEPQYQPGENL
FGFR1, sequence (P11362 whole entry, looked up): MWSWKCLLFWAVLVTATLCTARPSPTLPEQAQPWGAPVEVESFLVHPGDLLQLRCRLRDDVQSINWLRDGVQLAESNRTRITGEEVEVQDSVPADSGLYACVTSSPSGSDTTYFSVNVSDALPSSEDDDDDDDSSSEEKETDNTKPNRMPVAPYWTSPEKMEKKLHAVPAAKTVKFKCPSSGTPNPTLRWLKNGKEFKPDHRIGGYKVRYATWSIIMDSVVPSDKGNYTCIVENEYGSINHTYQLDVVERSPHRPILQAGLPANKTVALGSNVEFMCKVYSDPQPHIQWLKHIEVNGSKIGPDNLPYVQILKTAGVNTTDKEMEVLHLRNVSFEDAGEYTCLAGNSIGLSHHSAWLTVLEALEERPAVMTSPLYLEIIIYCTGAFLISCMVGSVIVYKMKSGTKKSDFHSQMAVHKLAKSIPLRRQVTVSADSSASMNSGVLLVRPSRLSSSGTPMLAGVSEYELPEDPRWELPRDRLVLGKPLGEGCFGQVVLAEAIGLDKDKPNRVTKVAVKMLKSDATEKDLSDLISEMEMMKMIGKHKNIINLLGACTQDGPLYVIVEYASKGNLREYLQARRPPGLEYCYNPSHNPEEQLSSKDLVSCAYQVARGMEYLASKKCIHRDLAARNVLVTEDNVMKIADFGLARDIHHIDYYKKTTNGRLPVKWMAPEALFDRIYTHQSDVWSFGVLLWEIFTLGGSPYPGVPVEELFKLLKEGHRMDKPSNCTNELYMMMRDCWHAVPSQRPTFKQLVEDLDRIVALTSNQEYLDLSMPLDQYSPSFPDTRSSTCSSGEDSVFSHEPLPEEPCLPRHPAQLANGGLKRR
MERTK, sequence (Q12866 whole entry, looked up): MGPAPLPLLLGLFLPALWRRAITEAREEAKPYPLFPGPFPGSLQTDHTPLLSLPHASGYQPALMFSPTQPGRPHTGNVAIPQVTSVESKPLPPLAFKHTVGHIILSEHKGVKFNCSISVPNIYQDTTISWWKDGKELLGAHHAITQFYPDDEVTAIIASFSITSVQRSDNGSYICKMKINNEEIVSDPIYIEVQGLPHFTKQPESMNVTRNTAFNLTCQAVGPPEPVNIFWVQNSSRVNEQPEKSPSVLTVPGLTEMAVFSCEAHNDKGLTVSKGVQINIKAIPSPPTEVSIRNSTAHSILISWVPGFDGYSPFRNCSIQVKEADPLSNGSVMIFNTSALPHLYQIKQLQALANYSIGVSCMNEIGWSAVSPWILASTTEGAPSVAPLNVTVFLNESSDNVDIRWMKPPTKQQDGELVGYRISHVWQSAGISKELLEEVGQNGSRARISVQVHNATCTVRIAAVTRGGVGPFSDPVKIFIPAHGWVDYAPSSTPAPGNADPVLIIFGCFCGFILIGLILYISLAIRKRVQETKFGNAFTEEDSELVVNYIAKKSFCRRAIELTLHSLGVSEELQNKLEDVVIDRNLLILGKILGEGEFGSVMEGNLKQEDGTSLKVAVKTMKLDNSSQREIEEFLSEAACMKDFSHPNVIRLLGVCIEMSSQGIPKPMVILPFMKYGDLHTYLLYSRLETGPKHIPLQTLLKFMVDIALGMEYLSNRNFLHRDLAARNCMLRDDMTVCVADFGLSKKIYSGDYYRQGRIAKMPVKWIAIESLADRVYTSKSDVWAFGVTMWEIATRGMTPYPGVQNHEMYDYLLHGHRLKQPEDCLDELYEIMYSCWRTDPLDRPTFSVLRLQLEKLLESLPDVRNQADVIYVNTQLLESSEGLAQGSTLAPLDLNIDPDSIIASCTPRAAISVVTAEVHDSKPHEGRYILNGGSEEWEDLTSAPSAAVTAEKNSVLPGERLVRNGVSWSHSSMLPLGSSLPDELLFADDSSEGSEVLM
Grb2 SH2, sequence (P62993 whole entry, looked up): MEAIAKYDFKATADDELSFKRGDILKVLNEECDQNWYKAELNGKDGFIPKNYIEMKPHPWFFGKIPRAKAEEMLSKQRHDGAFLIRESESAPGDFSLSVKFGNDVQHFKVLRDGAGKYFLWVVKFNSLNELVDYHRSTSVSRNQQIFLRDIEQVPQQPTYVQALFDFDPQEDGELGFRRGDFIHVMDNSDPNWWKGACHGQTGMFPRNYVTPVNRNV

Row | Sequence | phosphorylation enrichment (AncSZ) | phosphorylation enrichment (EPHB1) | phosphorylation enrichment (EPHB2) | phosphorylation enrichment (FGFR1) | phosphorylation enrichment (FGFR3) | phosphorylation enrichment (Fer (mouse)) | phosphorylation enrichment (Fes) | phosphorylation enrichment (Fyn) | phosphorylation enrichment (Hck) | phosphorylation enrichment (Jak2) | phosphorylation enrichment (MERTK) | phosphorylation enrichment (c-Abl (mouse)) | phosphorylation enrichment (c-Src) | SH2 binding enrichment (Grb2 SH2) | SH2 binding enrichment (SHP2-C SH2) | SH2 binding enrichment (c-Src SH2)
1 | RQQQDYWLKDV [ANPEP_Y600_I603K] | 1.07 | 0.484 | 0.556 | 0.71 | 0.741 | 0.495 | 0.911 | 0.305 | 0.322 | 1.25 | 0.52 | 0.662 | 0.564 | 1.01 | 0.635 | 0.675
2 | ATHSRYRLNDF [CLDN14_Y233_G232R_YF] | 0.419 | 0.296 | 0.337 | 0.307 | 0.308 | 0.349 | 0.706 | 0.329 | 0.449 | 0.413 | 0.391 | 0.546 | 0.36 | 0.935 | 0.825 | 0.674
3 | DFTEAYNSKIK [CLK1_Y305_P307S_YF] | 0.899 | 0.721 | 0.622 | 0.592 | 0.65 | 0.465 | 1.02 | 0.512 | 0.526 | 0.908 | 0.464 | 0.795 | 0.56 | 0.945 | 0.613 | 0.45
4 | MSFDRYMAVCH [OR2A5_Y123_I126V_YF] | 1.09 | 0.858 | 0.838 | 0.532 | 0.738 | 0.558 | 1.1 | 0.585 | 0.638 | 0.927 | 0.567 | 0.931 | 0.473 | 0.789 | 0.684 | 0.845
5 | IVKAFYVRARA [AIPL1_Y268_YF] | 1.11 | 0.5 | 0.588 | 0.464 | 0.688 | 0.465 | 1.07 | 0.433 | 0.494 | 0.95 | 0.424 | 0.699 | 0.396 | 0.872 | 1.2 | 0.601
6 | GGSTYYIDTNA [ACTL6A_Y69_P66S] | 0.882 | 0.563 | 0.555 | 0.724 | 0.719 | 0.453 | 0.998 | 0.955 | 0.602 | 0.668 | 1.01 | 0.654 | 0.805 | 1.03 | 0.906 | 0.731
7 | QEGPEYWDLET [HLA-A_Y83_Q86L] | 2.76 | 1.59 | 1.18 | 3.97 | 3.3 | 0.748 | 2.29 | 0.846 | 0.978 | 2.02 | 0.742 | 1.56 | 0.998 | 0.775 | 0.583 | 0.507
8 | PTEAQYRFIYM [PTPN11_Y511_Q506P] | 2.44 | 1.08 | 0.777 | 3.16 | 2.82 | 1.54 | 2.2 | 1.04 | 1.35 | 2.37 | 1.18 | 1.98 | 1.75 | 0.528 | 0.673 | 0.335
9 | GASWRYRSGVS [NEU1_Y242_G243R] | 0.583 | 0.388 | 0.608 | 0.494 | 0.511 | 0.474 | 0.693 | 0.388 | 0.46 | 0.587 | 0.402 | 0.48 | 0.445 | 0.82 | 0.524 | 0.391
10 | YLRTGYSIPYG [TGM1_Y370_V372I] | 0.777 | 0.451 | 0.461 | 0.554 | 0.574 | 0.384 | 0.677 | 0.375 | 0.39 | 0.804 | 1.21 | 0.702 | 0.457 | 1.01 | 2.11 | 9.77
11 | SLAARYYNWVC [FLT4_Y1230_S1235C] | 1.4 | 0.907 | 0.883 | 4.96 | 3.95 | 0.777 | 1.47 | 0.565 | 0.728 | 1.39 | 3.49 | 0.957 | 0.597 | 6.7 | 1.21 | 1.87
12 | SRWKLYPRMLR [HAO1_Y50] | 0.81 | 0.478 | 0.442 | 0.394 | 0.482 | 0.341 | 0.619 | 0.405 | 0.415 | 0.873 | 0.447 | 0.524 | 0.442 | 0.79 | 0.585 | 0.392
13 | TTSQPYRRLCS [USH2A_Y534_C536R] | 0.412 | 0.247 | 0.393 | 0.287 | 0.479 | 0.315 | 0.866 | 0.29 | 0.286 | 0.355 | 0.316 | 0.288 | 0.356 | 0.622 | 0.542 | 0.581
14 | FFRKFYNKSED [RYR1_Y4864] | 0.794 | 0.386 | 0.57 | 0.484 | 0.562 | 0.353 | 0.718 | 0.458 | 0.41 | 0.622 | 0.424 | 0.421 | 0.388 | 0.51 | 0.613 | 0.264
15 | KYVKMCDNHQL [MYO9A_Y203_Y203C] | 0.635 | 0.442 | 0.632 | 0.532 | 0.547 | 0.379 | 0.546 | 0.407 | 0.432 | 0.491 | 0.447 | 0.512 | 0.429 | 1.03 | 0.921 | 0.75
16 | GESVSYLFSHV [PRPS1_Y311] | 0.872 | 0.511 | 0.473 | 0.397 | 0.588 | 0.417 | 0.996 | 0.421 | 0.473 | 0.847 | 0.421 | 0.701 | 0.431 | 0.734 | 2.31 | 0.566
17 | YTGSTYRVGDT [FN1_Y106_N104S] | 0.72 | 0.422 | 0.453 | 0.726 | 0.58 | 0.405 | 0.748 | 0.464 | 0.529 | 0.715 | 0.355 | 0.595 | 0.48 | 0.836 | 0.902 | 0.538

Row | Sequence | phosphorylation enrichment (AncSZ) | phosphorylation enrichment (EPHB1) | phosphorylation enrichment (EPHB2) | phosphorylation enrichment (FGFR1) | phosphorylation enrichment (FGFR3) | phosphorylation enrichment (Fer (mouse)) | phosphorylation enrichment (Fes) | phosphorylation enrichment (Fyn) | phosphorylation enrichment (Hck) | phosphorylation enrichment (Jak2) | phosphorylation enrichment (MERTK) | phosphorylation enrichment (c-Abl (mouse)) | phosphorylation enrichment (c-Src) | SH2 binding enrichment (Grb2 SH2) | SH2 binding enrichment (SHP2-C SH2) | SH2 binding enrichment (c-Src SH2)
18 | THPFLYLTLEI [MLH1_Y293_S295T] | 1.71 | 0.889 | 0.889 | 0.652 | 1.23 | 0.778 | 2 | 0.473 | 0.556 | 1.97 | 0.524 | 1.22 | 0.548 | 0.873 | 0.688 | 0.623
19 | SIKDKYVTAVF [KCNH2_Y611_L615V_YF] | 0.667 | 0.48 | 0.475 | 0.491 | 0.541 | 0.523 | 0.794 | 0.543 | 0.467 | 0.839 | 0.443 | 0.682 | 0.501 | 0.82 | 0.658 | 0.538
20 | FEAMEYLESKQ [BTK_Y511_C506Y_YF] | 1.24 | 0.534 | 0.682 | 0.527 | 0.993 | 0.543 | 1.36 | 0.499 | 0.567 | 1.17 | 0.474 | 0.966 | 0.427 | 0.641 | 0.635 | 0.484
21 | TKGNEYVFRVA | 0.826 | 0.415 | 0.565 | 0.519 | 0.619 | 0.386 | 0.82 | 0.496 | 0.511 | 0.549 | 0.452 | 0.537 | 0.489 | 0.871 | 1.39 | 0.469
22 | HSLHDYKEALM [ADA2_Y337] | 0.663 | 0.546 | 0.448 | 0.371 | 0.567 | 0.44 | 0.844 | 0.444 | 0.342 | 0.696 | 0.431 | 0.664 | 0.522 | 0.702 | 0.426 | 0.418
23 | KRLFAYKMLMA [TMC2_Y209_Q205R_YF] | 0.767 | 0.484 | 0.528 | 0.458 | 0.683 | 0.59 | 0.867 | 0.433 | 0.455 | 0.669 | 0.375 | 0.58 | 0.367 | 2.05 | 1.98 | 1.51
24 | SQSPHYFRSGQ [GPATCH8_Y1038_R1043Q] | 0.551 | 0.435 | 0.316 | 0.366 | 0.405 | 0.359 | 0.524 | 0.345 | 0.325 | 0.538 | 0.419 | 0.456 | 0.427 | 0.869 | 0.533 | 0.484
25 | LAIEWYVVVCK [RHO_Y136_R135W] | 2.49 | 1.8 | 1.33 | 1.45 | 2.21 | 0.847 | 3.21 | 0.972 | 1.36 | 1.88 | 0.676 | 2.27 | 0.852 | 1.05 | 0.583 | 0.5
26 | PDGREYIFVDP [PDGFRA_Y572_H570R_YF] | 2.12 | 0.62 | 0.532 | 1.86 | 1.2 | 0.615 | 1.08 | 0.649 | 0.647 | 1.02 | 0.49 | 0.488 | 0.431 | 0.789 | 0.618 | 0.543
27 | LLFRVYGLESL [INSR_Y94] | 1.88 | 0.96 | 0.828 | 0.542 | 1.4 | 0.757 | 1.76 | 0.752 | 0.465 | 1.77 | 0.792 | 1.15 | 0.565 | 0.718 | 0.734 | 0.588
28 | PTTKTYFRHFD [HBA1_Y43_P45R] | 0.556 | 0.546 | 0.409 | 0.65 | 0.66 | 0.312 | 0.998 | 0.393 | 0.539 | 0.959 | 0.466 | 0.667 | 0.545 | 0.964 | 1.08 | 0.457
29 | IDNKMYDPKMN [ENPP1_Y280] | 0.699 | 0.369 | 0.362 | 0.553 | 0.471 | 0.355 | 0.729 | 0.404 | 0.478 | 0.385 | 0.304 | 0.41 | 0.344 | 1.17 | 0.623 | 0.578
30 | YYHCTYKKRMI [CLEC12A_Y242] | 1.37 | 0.525 | 0.601 | 4.79 | 3.12 | 0.558 | 1.21 | 0.59 | 0.78 | 1.29 | 1.48 | 0.994 | 0.599 | 1.25 | 0.966 | 1.11
31 | FTNRSYDLDYD [MYC_Y12_N11S] | 1.24 | 0.542 | 0.841 | 0.561 | 0.745 | 0.488 | 1.13 | 0.565 | 0.632 | 0.804 | 0.512 | 0.645 | 0.576 | 0.717 | 0.418 | 2.51
32 | KPNMNYDKLSR [FLI1_Y332] | 0.548 | 0.494 | 0.541 | 0.416 | 0.4 | 0.324 | 0.486 | 0.342 | 0.454 | 0.389 | 0.337 | 0.459 | 0.418 | 0.895 | 0.725 | 1.59
33 | IRSGIYYKPES [L2HGDH_Y102_H98R] | 0.899 | 0.982 | 0.753 | 0.745 | 0.735 | 0.465 | 0.687 | 1.97 | 2.6 | 1.26 | 9.7 | 8.79 | 1.51 | 0.712 | 0.419 | 0.697
